± gives the uncertainty stated by the source.
Experiment: abundance fitness (aPCA) (normalised: wild type 0, dead -1); higher = more abundant; growth selection in yeast, the domain comes from the species named
Conditions: Homo sapiens

Substance | abundance fitness
Transcriptional activator Myb Q200T, P10242 | -0.135 ± 0.072
Transcriptional activator Myb Q200V, P10242 | -0.087 ± 0.074
Transcriptional activator Myb Q200W, P10242 | -0.345 ± 0.094
Transcriptional activator Myb Q200Y, P10242 | -0.259 ± 0.12
Transcriptional activator Myb R153C, P10242 | -0.451 ± 0.098
Transcriptional activator Myb R153D, P10242 | -0.25 ± 0.095
Transcriptional activator Myb R153E, P10242 | -0.144 ± 0.079
Transcriptional activator Myb R153F, P10242 | -0.068 ± 0.094
Transcriptional activator Myb R153I, P10242 | -0.284 ± 0.13
Transcriptional activator Myb R153L, P10242 | -0.098 ± 0.073
Transcriptional activator Myb R153M, P10242 | -0.11 ± 0.11
Transcriptional activator Myb R153N, P10242 | 0.02 ± 0.13
Transcriptional activator Myb R153P, P10242 | -1.12 ± 0.18
Transcriptional activator Myb R153Q, P10242 | -0.031 ± 0.092
Transcriptional activator Myb R153S, P10242 | -0.121 ± 0.06
Transcriptional activator Myb R153T, P10242 | -0.125 ± 0.14
Transcriptional activator Myb R153V, P10242 | -0.199 ± 0.084
Transcriptional activator Myb R153Y, P10242 | -0.084 ± 0.11
Transcriptional activator Myb R176A, P10242 | -0.217 ± 0.065
Transcriptional activator Myb R176C, P10242 | -0.148 ± 0.12
Transcriptional activator Myb R176D, P10242 | -0.66 ± 0.14
Transcriptional activator Myb R176E, P10242 | -0.677 ± 0.11

Substance | abundance fitness
Transcriptional activator Myb R176F, P10242 | -0.733 ± 0.25
Transcriptional activator Myb R176G, P10242 | -0.728 ± 0.062
Transcriptional activator Myb R176H, P10242 | 0.043 ± 0.16
Transcriptional activator Myb R176I, P10242 | -0.225 ± 0.16
Transcriptional activator Myb R176K, P10242 | -0.022 ± 0.097
Transcriptional activator Myb R176L, P10242 | -0.423 ± 0.074
Transcriptional activator Myb R176M, P10242 | -0.584 ± 0.11
Transcriptional activator Myb R176N, P10242 | -0.905 ± 0.2
Transcriptional activator Myb R176P, P10242 | -0.87 ± 0.15
Transcriptional activator Myb R176Q, P10242 | -0.513 ± 0.16
Transcriptional activator Myb R176S, P10242 | -0.457 ± 0.072
Transcriptional activator Myb R176T, P10242 | -0.223 ± 0.096
Transcriptional activator Myb R176V, P10242 | -0.22 ± 0.066
Transcriptional activator Myb R176W, P10242 | -0.436 ± 0.064
Transcriptional activator Myb R176Y, P10242 | -0.651 ± 0.14
Transcriptional activator Myb R190A, P10242 | -0.023 ± 0.07
Transcriptional activator Myb R190C, P10242 | -0.117 ± 0.18
Transcriptional activator Myb R190D, P10242 | -0.073 ± 0.13
Transcriptional activator Myb R190E, P10242 | -0.161 ± 0.093
Transcriptional activator Myb R190F, P10242 | 0.009 ± 0.13
Transcriptional activator Myb R190H, P10242 | -0.189 ± 0.17
Transcriptional activator Myb R190I, P10242 | -0.265 ± 0.14

Substance | abundance fitness
Transcriptional activator Myb R190K, P10242 | 0.137 ± 0.12
Transcriptional activator Myb R190L, P10242 | -0.131 ± 0.061
Transcriptional activator Myb R190M, P10242 | 0.06 ± 0.14
Transcriptional activator Myb R190N, P10242 | -0.196 ± 0.19
Transcriptional activator Myb R190P, P10242 | -0.335 ± 0.083
Transcriptional activator Myb R190Q, P10242 | 0.026 ± 0.12
Transcriptional activator Myb R190S, P10242 | -0.074 ± 0.065
Transcriptional activator Myb R190T, P10242 | -0.131 ± 0.08
Transcriptional activator Myb R190V, P10242 | -0.01 ± 0.089
Transcriptional activator Myb R190W, P10242 | -0.075 ± 0.11
Transcriptional activator Myb R190Y, P10242 | -0.461 ± 0.18
Transcriptional activator Myb R191A, P10242 | 0.036 ± 0.075
Transcriptional activator Myb R191C, P10242 | 0.172 ± 0.15
Transcriptional activator Myb R191D, P10242 | 0.117 ± 0.12
Transcriptional activator Myb R191E, P10242 | 0.004 ± 0.086
Transcriptional activator Myb R191F, P10242 | -0.164 ± 0.21
Transcriptional activator Myb R191G, P10242 | -0.038 ± 0.068
Transcriptional activator Myb R191I, P10242 | -0.136 ± 0.16
Transcriptional activator Myb R191K, P10242 | -0.192 ± 0.12
Transcriptional activator Myb R191L, P10242 | -0.058 ± 0.077
Transcriptional activator Myb R191M, P10242 | -0.091 ± 0.13
Transcriptional activator Myb R191N, P10242 | -0.07 ± 0.13

Substance | abundance fitness
Transcriptional activator Myb R191P, P10242 | 0.047 ± 0.11
Transcriptional activator Myb R191S, P10242 | -0.052 ± 0.076
Transcriptional activator Myb R191T, P10242 | 0.022 ± 0.14
Transcriptional activator Myb R191V, P10242 | 0.017 ± 0.094
Transcriptional activator Myb R191W, P10242 | -0.017 ± 0.088
Transcriptional activator Myb R191Y, P10242 | -0.423 ± 0.16
Transcriptional activator Myb S146A, P10242 | -0.233 ± 0.15
Transcriptional activator Myb S146F, P10242 | -0.021 ± 0.19
Transcriptional activator Myb S146G, P10242 | -0.159 ± 0.2
Transcriptional activator Myb S146K, P10242 | -0.344 ± 0.34
Transcriptional activator Myb S146L, P10242 | -0.299 ± 0.43
Transcriptional activator Myb S146P, P10242 | -0.108 ± 0.26
Transcriptional activator Myb S146V, P10242 | -0.017 ± 0.29
Transcriptional activator Myb S187A, P10242 | -0.075 ± 0.093
Transcriptional activator Myb S187C, P10242 | -0.061 ± 0.1
Transcriptional activator Myb S187D, P10242 | 0.077 ± 0.12
Transcriptional activator Myb S187E, P10242 | -0.001 ± 0.067
Transcriptional activator Myb S187F, P10242 | -0.26 ± 0.085
Transcriptional activator Myb S187G, P10242 | -0.023 ± 0.049
Transcriptional activator Myb S187H, P10242 | -0.011 ± 0.17
Transcriptional activator Myb S187I, P10242 | -0.033 ± 0.14
Transcriptional activator Myb S187K, P10242 | -0.058 ± 0.1

Substance | abundance fitness
Transcriptional activator Myb S187L, P10242 | -0.019 ± 0.066
Transcriptional activator Myb S187M, P10242 | -0.188 ± 0.13
Transcriptional activator Myb S187N, P10242 | -0.161 ± 0.14
Transcriptional activator Myb S187P, P10242 | -0.589 ± 0.11
Transcriptional activator Myb S187Q, P10242 | 0.125 ± 0.11
Transcriptional activator Myb S187R, P10242 | -0.054 ± 0.049
Transcriptional activator Myb S187T, P10242 | 0.124 ± 0.1
Transcriptional activator Myb S187V, P10242 | -0.081 ± 0.061
Transcriptional activator Myb S187W, P10242 | -0.108 ± 0.07
Transcriptional activator Myb S202C, P10242 | -0.108 ± 0.1
Transcriptional activator Myb S202D, P10242 | -0.069 ± 0.087
Transcriptional activator Myb S202E, P10242 | 0.042 ± 0.073
Transcriptional activator Myb S202F, P10242 | -0.045 ± 0.093
Transcriptional activator Myb S202G, P10242 | 0.027 ± 0.047
Transcriptional activator Myb S202I, P10242 | -0.021 ± 0.19
Transcriptional activator Myb S202L, P10242 | -0.181 ± 0.073
Transcriptional activator Myb S202M, P10242 | -0.186 ± 0.12
Transcriptional activator Myb S202N, P10242 | -0.237 ± 0.18
Transcriptional activator Myb S202P, P10242 | -0.061 ± 0.14
Transcriptional activator Myb S202Q, P10242 | -0.102 ± 0.16

— the Human Domainome abundance scans (Beltran et al. 2025)
